Where two headings read alike, the source gives them in different places. Positions of bridges follow the written chain, without caps; N, C: chain ends. MBP = not defined here
Experiments:
Format in all cases: binding
CTLA-4 [1] = target: T1, CTLA-4 (Homo sapiens, UniProt P16410); assay: E. coli lysate ELISA of MBP–peptide fusion proteins; details: alanine mutants of C4m-310044 as MBP–peptide–His-tag fusion protein, compared with C4m-310044
T1 sequence (P16410 36-223): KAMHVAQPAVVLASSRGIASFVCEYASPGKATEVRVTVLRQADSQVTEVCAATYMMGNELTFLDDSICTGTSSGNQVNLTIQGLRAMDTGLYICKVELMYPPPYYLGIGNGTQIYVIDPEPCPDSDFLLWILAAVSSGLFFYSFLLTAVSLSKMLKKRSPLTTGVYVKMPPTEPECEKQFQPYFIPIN
Description: We generated 14 alanine mutants as an MBP–peptide–His-tag fusion protein (Supplementary Figure S1A), and systematically investigated the effects of alanine substitution by lysate ELISA (Supplementary Figure S1B). […] These eight residues were regarded as important for the interaction between C4m-310044 peptide and CTLA-4. Of the eight residues, six (H2, P3, L5, S9, H11, and F12) were highly conserved even after affinity maturation of C4-302 (Figure 4). These six amino acids were essential residues for binding with CTLA-4. […] Neither of these two residues is involved in binding, but they seem to contribute to affinity. […]
(B) 14 variants shown in (A) were expressed as the MBP-peptide fusion protein. The binding activity of each on CTLA-4 was evaluated using lysate ELISA. The BL21(DE3) E. coli cells transformed with each alanine scanning mutant were grown in 100 μL of 2xYT/50 μg/mL ampicillin at 37 °C until OD600 of 0.5–0.8 was reached. After IPTG (0.5 mM) was added, the broth was incubated at 25 °C, with shaking overnight. The cell broth was lysed using lysis buffer (5 mg/mL lysozyme (FUJIFILM Wako) in PBS, 50% BugBuster ® (v/v) (Merck Millipore) at RT for 2 h, with shaking. The lysate was blocked with TBS/0.05% Tween-20/12.5% skim milk by incubating at RT for 0.5 h, shaking, then added to CTLA-4-immobilized wells on 384-plate and incubated at RT for 1.5 h. After washing and incubation with anti-FLAG M2 ®-peroxidase antibody (1:10,000; Sigma Aldrich) at RT for 1 h, the absorbance at 450 nm/ 650 nm was read with a microplate reader through the reaction with 1x TMB substrate solution and 2N

[2] = target: T2, interaction between CTLA-4 and B7-1 (Homo sapiens, UniProt P16410); assay: CTLA-4:B7-1[Biotinylated] Inhibitor Screening Assay (BPS Bioscience kit)
T2 construct: purchased BPS Bioscience Inc
T2 sequence (P16410 36-161 limits assumed): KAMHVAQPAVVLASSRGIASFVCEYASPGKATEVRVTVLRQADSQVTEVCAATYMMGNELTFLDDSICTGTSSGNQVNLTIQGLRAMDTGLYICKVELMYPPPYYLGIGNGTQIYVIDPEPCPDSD
Procedure: We prepared the C4m-3127 cyclic peptide using chemical synthesis and examined its properties. First, the inhibitory activity was tested using a kit (CTLA-4:B7-1[Biotinylated] Inhibitor Screening Assay, BPS Bioscience Inc.) (Figure 5A). […] In a sequence of C4m-3127, the GG linker behind C-terminal Cys had mutated into Glu and Arg.
A cyclic peptide with a low EC50 value was synthesized by adding glycine to the N-terminus at Toray Research Center.
(B) Flow cytometry affinity analysis.

CTLA-4 [3] = target: T1, CTLA-4; assay: ELISA-based determination of EC50 value of MBP–peptide–His-tag fusion constructs
Procedure: Peptides with binding specificity for CTLA-4 were overexpressed as fusion proteins with MBP at the N-terminus and His-tag at the C-terminus. After BL21(DE3) E. coli cells were transformed, the fusion constructs were grown in 200 mL of 2xYT/[…] ampicillin at 37 °C until an OD600 of 0.5–0.8 was reached. Then, IPTG (0.5 mM) was added. The broth was incubated at 25 °C with shaking overnight. After the cell broth was centrifuged, the pellet was resuspended in 20 mM Tris-HCl pH 7.5/500 mM NaCl and sonicated (Bioruptor UCD-250, Sonicbio Co. Ltd., Kanagawa, Japan). The sample was centrifuged, then the supernatant was purified on Ni Sepharose^TM 6FF (Cytiva, Tokyo, Japan). The purified sample was buffer exchanged to PBS by dialysis and quantified using a kit (BCA Protein Assay Kit, Thermo Fisher Scientific, Waltham, MA, USA).
CTLA-4 (5 μg/mL) was coated onto a NUNC® Maxisoap^TM 384 well plate and incubated at 4 °C overnight. After the wells were washed twice with TBS/0.05% Tween-20, they were blocked with 100 μL of TBS/0.05% Tween-20/5% skim milk by incubating at RT for 1 h with shaking. […] The absorbance was measured at 450 nm/650 nm with a microplate reader (Infinite F200, Tecan Japan Co., Ltd., Kanagawa, Japan). The absorbance versus the concentration of MBP–peptide–His-tag fusion was found. The midpoint concentration was determined as the half-maximal effective concentration (EC50) value.

[4] = inhibition of CTLA-4:B7-1 interaction, luminescence, four-parameter logistic fit, read-out: IC50

Molecule	absorbance in lysate ELISA (CTLA-4 [1])	also measured
V8A: alanine mutant of C4m-310044 as MBP–peptide–His-tag fusion protein ({MBP}-CLHPFLPIASHHFCGR-{His‑tag}; disulfide 1-14 (inferred); reading uncertain)	same level of absorbance with C4m-310044	
F4A: alanine mutant of C4m-310044 as MBP–peptide–His-tag fusion protein ({MBP}-CLHPALPIVSHHFCGR-{His‑tag}; disulfide 1-14 (inferred); reading uncertain)	same level of absorbance with C4m-310044	
R(+2)A: alanine mutant of C4m-310044 as MBP–peptide–His-tag fusion protein ({MBP}-CLHPFLPIVSHHFCGA-{His‑tag}; disulfide 1-14 (inferred); reading uncertain)	same level of absorbance with C4m-310044	
CC(C)[C@H]1ON(C(=O)OCc2ccccc2)[C@H]2CN(CCc3ccccc3)C(=O)[C@H](CCCNC(=N)N)N2C1=O [PGF00452, Benzyl (3R,6S,9aS)-6-(3-guanidinopropyl)-3-isopropyl-4,7-dioxo-8-phenethylhexahydropyrazino [2,1-c][1,2,4]oxadiazine-1(6H)-carboxylate]		IC50 [2, 4]: 147 µM
I7A: alanine mutant of C4m-310044 as MBP–peptide–His-tag fusion protein ({MBP}-CLHPFLPAVSHHFCGR-{His‑tag}; disulfide 1-14 (inferred); reading uncertain)	marked decrease in absorbance	
H11A: alanine mutant of C4m-310044 as MBP–peptide–His-tag fusion protein ({MBP}-CLHPFLPIVSHAFCGR-{His‑tag}; disulfide 1-14 (inferred); reading uncertain)	marked decrease in absorbance	
F12A: alanine mutant of C4m-310044 as MBP–peptide–His-tag fusion protein ({MBP}-CLHPFLPIVSHHACGR-{His‑tag}; disulfide 1-14 (inferred); reading uncertain)	marked decrease in absorbance	
S9A: alanine mutant of C4m-310044 as MBP–peptide–His-tag fusion protein ({MBP}-CLHPFLPIVAHHFCGR-{His‑tag}; disulfide 1-14 (inferred); reading uncertain)	marked decrease in absorbance	
L1A: alanine mutant of C4m-310044 as MBP–peptide–His-tag fusion protein ({MBP}-CAHPFLPIVSHHFCGR-{His‑tag}; disulfide 1-14 (inferred); reading uncertain)	same level of absorbance with C4m-310044	
N=C(N)NCCC[C@H]1C(=O)N(CCc2ccccc2)C[C@@H]2N(C(=O)OCc3ccccc3)O[C@H](CC3CCCCC3)C(=O)N21 [PGF00478, Benzyl (3R,6S,9aS)-3-(cyclohexylmethyl)-6-(3-guanidinopropyl)-4,7-dioxo-8-phenethylhexahydropyrazino [2,1-c][1,2,4]oxadiazine-1(6H)-carboxylate]		IC50 [2, 4]: 80 µM; IC50 ([2]; values printed in Figure 7, read-out: IC50, CTLA-4/B7-1 interaction inhibitory activity): 60 µM
P6A: alanine mutant of C4m-310044 as MBP–peptide–His-tag fusion protein ({MBP}-CLHPFLAIVSHHFCGR-{His‑tag}; disulfide 1-14 (inferred); reading uncertain)	marked decrease in absorbance	
CC(C)[C@H]1ON(C(=O)OCc2ccccc2)[C@H]2CN(CCc3ccccc3)C(=O)[C@H](Cc3c[nH]cn3)N2C1=O [PGF00432, Benzyl (3R,6S,9aS)-6-((1H-imidazol-4-yl)methyl)-3-isopropyl-4,7-dioxo-8-phenethylhexahydropyrazino [2,1-c][1,2,4]oxadiazine-1(6H)-carboxylate]		IC50 [2, 4]: 294 µM
H10A: alanine mutant of C4m-310044 as MBP–peptide–His-tag fusion protein ({MBP}-CLHPFLPIVSAHFCGR-{His‑tag}; disulfide 1-14 (inferred); reading uncertain)	same level of absorbance with C4m-310044	
C4m-3127: best binder clone from affinity maturation of C4-302, random loop MHPFLPIVSHHF, expressed as MBP fusion protein ({MBP}-CMHPFLPIVSHHFCER-{His‑tag}; disulfide 1-14 (inferred); not fully specified; reading uncertain)		affinity relative to C4-302 (CTLA-4 [3]; MBP fusion protein, times greater affinity than C4-302): 50 times; EC50 (CTLA-4 [3]; purified MBP–peptide–His-tag fusion protein, ELISA on immobilized CTLA-4): 0.0747 µM; IC50 ([2]; inhibition of CTLA-4:B7-1 interaction, luminescence, four-parameter logistic fit, listed as MBP–C4m-3127 peptide–His-tag fusion protein, read-out: IC50): 1.36 µM; IC50 [2, 4]: 11.5 µM
G(+1)A: alanine mutant of C4m-310044 as MBP–peptide–His-tag fusion protein ({MBP}-CLHPFLPIVSHHFCAR-{His‑tag}; disulfide 1-14 (inferred); reading uncertain)	same level of absorbance with C4m-310044	
P3A: alanine mutant of C4m-310044 as MBP–peptide–His-tag fusion protein ({MBP}-CLHAFLPIVSHHFCGR-{His‑tag}; disulfide 1-14 (inferred); reading uncertain)	marked decrease in absorbance	
H2A: alanine mutant of C4m-310044 as MBP–peptide–His-tag fusion protein ({MBP}-CLAPFLPIVSHHFCGR-{His‑tag}; disulfide 1-14 (inferred); reading uncertain)	marked decrease in absorbance	
L5A: alanine mutant of C4m-310044 as MBP–peptide–His-tag fusion protein ({MBP}-CLHPFAPIVSHHFCGR-{His‑tag}; disulfide 1-14 (inferred); reading uncertain)	marked decrease in absorbance	
